In US20260209372A1:

Molecular target: recombinant human CD30L protein (human) (UniProt P32971)
Assay: ELISA

Chain of recombinant human CD30L protein (human) (P32971 63-234 limits assumed): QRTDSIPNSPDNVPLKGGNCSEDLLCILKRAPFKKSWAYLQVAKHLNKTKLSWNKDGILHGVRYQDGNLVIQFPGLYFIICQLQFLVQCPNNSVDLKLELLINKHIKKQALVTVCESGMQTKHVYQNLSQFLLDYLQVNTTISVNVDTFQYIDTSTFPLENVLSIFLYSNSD

B1: Clone 59 (antibody, V domains shown)
VH: QVQLVESGGGVVQPGRSLRLSCAASGFTFSIYGMHWVRQAPGKGLEWVAVIWYDGSNKYYVDSVKGRFTISRDNSKNSLYLQMNSLRAEDTAVYYCAREGNLFDYWGQGTLVTVSS
VL: DIQMTQSPSTLSASVGDRVTITCRASQSISSWLAWYQQKPGKAPKLLIYKASSLESGVPSRFSGSGSGTEFTLTISSLKPDDFATYYCQQYKSYYTFGQGTKLEIK
OD: 0.06 OD
